This note sets out measurements from patent US20250136709A1 (DEVELOPMENT CENTER FOR BIOTECHNOLOGY, published 2025).

Test [1] addresses mCD73hF1-R297K (mouse; human) (UniProt Q61503). Description: ELISA. For orientation: ELISA stands for enzyme-linked immunosorbent assay.
The target in test [2] is mouse CD73-D296E-K297R (mouse) (UniProt Q61503). The test is described as follows: ELISA.
For test [3], the target named is T1, human CD73 (human, UniProt P21589 27-549).
T1 construct: the antigen of the Biacore assay is only called human CD73 antigen; also called human CD73 antigen; Recombinant Human CD73-6xHis
T1 sequence: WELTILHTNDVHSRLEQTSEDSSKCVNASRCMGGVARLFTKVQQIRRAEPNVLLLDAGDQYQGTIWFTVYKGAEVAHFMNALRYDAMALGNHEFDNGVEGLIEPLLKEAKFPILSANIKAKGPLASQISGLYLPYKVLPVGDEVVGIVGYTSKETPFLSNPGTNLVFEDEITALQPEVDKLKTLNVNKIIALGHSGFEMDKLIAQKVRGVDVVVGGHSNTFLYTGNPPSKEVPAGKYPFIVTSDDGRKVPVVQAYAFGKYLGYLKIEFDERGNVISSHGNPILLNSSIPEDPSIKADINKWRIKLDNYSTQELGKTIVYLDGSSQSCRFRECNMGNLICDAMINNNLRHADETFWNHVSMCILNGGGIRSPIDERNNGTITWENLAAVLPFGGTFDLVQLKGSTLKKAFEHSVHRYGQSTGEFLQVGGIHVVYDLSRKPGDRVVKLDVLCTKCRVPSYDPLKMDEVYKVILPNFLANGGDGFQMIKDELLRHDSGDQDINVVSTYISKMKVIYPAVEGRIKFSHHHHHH
The test is described as follows: Biacore SPR.

Test [4] deals with T2, human CD73 on cells (MDA-MB-231, Calu-1, KLM-1, human CD4+ T-cells) (human, UniProt P21589 27-549).
T2 sequence: T1 sequence
The test is described as follows: cell-based or functional assay.

The target of test [5] is T1, human CD73. The test is described as follows: Biacore SPR. This is another data set of the same source. (In general: Surface plasmon resonance follows binding to a sensor surface in real time, without labels.)
Test [6] deals with mCD73hF1 (mouse; human) (UniProt Q61503). Description: ELISA, antibody titrated; panel mCD73 hF1.
A further test deals with mCD73hF2 (mouse; human) (UniProt Q61503). Description: ELISA, antibody titrated; panel mCD73 hF2.
A further test concerns the target mCD73hF3 (mouse; human) (UniProt Q61503). Description: ELISA, antibody titrated; panel mCD73 hF3.
The target of test [7] is mCD73hF1-S269A (mouse; human) (UniProt Q61503). The test is described as follows: ELISA, 10H5 titrated on the mutant protein.
Test [8] concerns the target mouse CD73-D296E-K297R (mouse) (UniProt Q61503). The test is described as follows: ELISA, 10H5 titrated on the mutant protein.
For test [9], the target named is mCD73hF1 (mouse; human) (UniProt Q61503). The test is described as follows: ELISA, antibody titrated; right panel mCD73 hF1.
Another test addresses T3, mCD73hF4 (human; mouse, UniProt Q61503 307-551, limits assumed).
T3 construct: Mouse-human domain swapping protein, expressed in F293 cells
T3 sequence: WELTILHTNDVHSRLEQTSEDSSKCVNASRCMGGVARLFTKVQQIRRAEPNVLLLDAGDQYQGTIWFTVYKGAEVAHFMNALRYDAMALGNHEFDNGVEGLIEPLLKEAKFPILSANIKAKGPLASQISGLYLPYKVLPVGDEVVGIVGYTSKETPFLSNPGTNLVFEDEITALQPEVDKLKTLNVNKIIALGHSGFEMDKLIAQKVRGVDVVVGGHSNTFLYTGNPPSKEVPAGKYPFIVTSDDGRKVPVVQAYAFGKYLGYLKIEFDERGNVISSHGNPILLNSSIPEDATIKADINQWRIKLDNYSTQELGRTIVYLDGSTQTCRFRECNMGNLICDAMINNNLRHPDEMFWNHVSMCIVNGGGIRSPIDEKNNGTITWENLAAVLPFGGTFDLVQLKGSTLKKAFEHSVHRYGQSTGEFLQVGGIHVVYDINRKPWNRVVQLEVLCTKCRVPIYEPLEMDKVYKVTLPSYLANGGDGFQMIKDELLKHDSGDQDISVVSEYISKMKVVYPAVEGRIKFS
The test is described as follows: ELISA, antibody titrated; panel mCD73 hF4.

The next test deals with T4, mCD73hF1-K206A-N211G (mouse; human, UniProt Q61503 29-270; Q61503 307-551).
T4 chain: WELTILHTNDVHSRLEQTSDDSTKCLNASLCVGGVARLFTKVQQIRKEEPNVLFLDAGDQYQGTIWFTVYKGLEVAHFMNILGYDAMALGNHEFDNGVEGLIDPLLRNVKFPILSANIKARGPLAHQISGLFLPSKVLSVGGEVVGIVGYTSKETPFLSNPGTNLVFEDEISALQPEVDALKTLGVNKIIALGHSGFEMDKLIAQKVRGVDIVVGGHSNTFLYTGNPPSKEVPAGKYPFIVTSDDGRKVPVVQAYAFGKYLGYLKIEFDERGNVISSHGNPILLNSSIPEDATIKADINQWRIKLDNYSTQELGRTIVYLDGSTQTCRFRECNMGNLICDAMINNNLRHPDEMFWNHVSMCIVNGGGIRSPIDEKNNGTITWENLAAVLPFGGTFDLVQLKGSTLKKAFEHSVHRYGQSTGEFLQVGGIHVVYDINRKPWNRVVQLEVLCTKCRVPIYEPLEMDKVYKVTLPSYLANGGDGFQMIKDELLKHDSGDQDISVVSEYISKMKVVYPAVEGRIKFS
The test is described as follows: ELISA, antibody titrated; panel mCD73 hF1 K206A N211G.

B1: 10H5 antibody (antibody, V domains shown)
VH: QVKLQQSGAELVKPGASVKISCKASGYVFSSYWINWVKQRPGKGLEWIGQIYPGDGNTNYNRNFKGKATLTADKSSSTAYMQLSSLTSEDSAVYFCAGFADWGQGTTVTVSS
VL: DIELTQSPSSLSASLGERVSLTCRASQDIGDSLIWLQQEPDGTIKRLIYATSSLDSGVPKRFSGSRSGTSYSLTISSVEAEDAATYYCQQYSGYPLTFGSGTKLEIK
notes: Mouse scFv-derived variable domains put into an expression vector with CH and CL chains (full-length chimeric antibody); also called 10H5 chimeric; 10H5 MM
As to B1, the binding affinity relative to that to mCD73hF1 in test [1] was 0.1 fold. For the same molecule, the Kd – broadly, a measure of binding affinity in units of concentration – in test [2] is 0.098 nM; with human CD73 [3] it was 0.683 nM. Besides, the “AMP concentration in supernatant by LC/MS, MDA-MB-231 cells, 400 µM AMP, 10 nM antibody, 6 hours” value in test [4] turned out to be 347 µM. The “AMP concentration in supernatant by LC/MS, MDA-MB-231 cells, 400 µM AMP, 10 nM antibody, 24 hours” value in test [4] was determined as 290 µM. For the same molecule, the “AMP consumption, Calu-1 cells, 10 nM antibody, 24 hrs” value in test [4] was under 20%. Besides, the “AMP consumption, MDA-MB-231 cells, 10 nM antibody, 6 hr” value in test [4] was under 10%. Also, in test [4], the “AMP consumption, MDA-MB-231 cells, 10 nM antibody, 24 h” value was under 50%. The koff (commonly the first-order rate constant of dissociation) with human CD73 [5] came out at 5.78e-05 s⁻¹. In the test with human CD73 [5], the kon (as a rule, the rate constant with which the complex forms) came to 84600 M⁻¹ s⁻¹. Further, the EC50 (read off the curve) – broadly, the concentration needed to bring the measured effect to its halfway point – worked out at 0.3 nM with mCD73hF1 (mouse; human) [6]; 0.2 nM in the test with mCD73hF2 (mouse; human); 0.2 nM in the test with mCD73hF3 (mouse; human); 0.5 nM in test [7]; 0.2 nM in [8]; 0.3 nM with mCD73hF1 (mouse; human) [9]. Moreover, the “EC50 (read off the curve)” value in the test with mCD73hF4 and with mCD73hF1-K206A-N211G was about 0.2 nM in each case.
